Results: patent US20180155407A1 (Sanofi, published 2018)
Numbered stars: 1 amine (or outer) side, 2 acyl side, 3 side chain; on linkers, the order of the positions; unused ones are H or OH. Square brackets hold non-standard residues; d marks the D form. Side chains are listed from the residue outwards. Ends that are not written are not given here. * marks the point of attachment. γGlu = O=C(O)[C@H](CCC(=O)[*:2])N[*:1]; Stearoyl = CCCCCCCCCCCCCCCCCC(=O)*; Palmitoyl = CCCCCCCCCCCCCCCC(=O)*; AEEA = NCCOCCOCC(=O)O; Aib = CC(C)(N)C(=O)O

B1: SEQ ID NO: 16 (peptide)
peptide: H[Aib]QGTFTSDLSKLK([γGlu-γGlu-AEEA-Palmitoyl])EKQRQ[Aib]EFIEWLKAGGHPS[Aib]KPPPK-NH2
modifications: N-terminus assumed
SMILES: CCCCCCCCCCCCCCCC(=O)NCCOCCOCC(=O)N[C@@H](CCC(=O)N[C@@H](CCC(=O)NCCCC[C@H](NC(=O)[C@H](CC(C)C)NC(=O)[C@H](CCCCN)NC(=O)[C@H](CO)NC(=O)[C@H](CC(C)C)NC(=O)[C@H](CC(=O)O)NC(=O)[C@H](CO)NC(=O)[C@@H](NC(=O)[C@H](Cc1ccccc1)NC(=O)[C@@H](NC(=O)CNC(=O)[C@H](CCC(N)=O)NC(=O)C(C)(C)NC(=O)[C@@H](N)Cc1c[nH]cn1)[C@@H](C)O)[C@@H](C)O)C(=O)N[C@@H](CCC(=O)O)C(=O)N[C@@H](CCCCN)C(=O)N[C@@H](CCC(N)=O)C(=O)N[C@@H](CCCNC(=N)N)C(=O)N[C@@H](CCC(N)=O)C(=O)NC(C)(C)C(=O)N[C@@H](CCC(=O)O)C(=O)N[C@@H](Cc1ccccc1)C(=O)N[C@H](C(=O)N[C@@H](CCC(=O)O)C(=O)N[C@@H](Cc1c[nH]c2ccccc12)C(=O)N[C@@H](CC(C)C)C(=O)N[C@@H](CCCCN)C(=O)N[C@@H](C)C(=O)NCC(=O)NCC(=O)N[C@@H](Cc1c[nH]cn1)C(=O)N1CCC[C@H]1C(=O)N[C@@H](CO)C(=O)NC(C)(C)C(=O)N[C@@H](CCCCN)C(=O)N1CCC[C@H]1C(=O)N1CCC[C@H]1C(=O)N1CCC[C@H]1C(=O)N[C@@H](CCCCN)C(N)=O)[C@@H](C)CC)C(=O)O)C(=O)O
B2: SEQ ID NO: 18 (peptide)
peptide: H[Aib]QGTFTSDLSKLK([γGlu-γGlu-AEEA-Palmitoyl])EEQRQ[Aib]EFIEWLKAGGHPS[Aib]KPPPK-NH2
modifications: N-terminus assumed
SMILES: CCCCCCCCCCCCCCCC(=O)NCCOCCOCC(=O)N[C@@H](CCC(=O)N[C@@H](CCC(=O)NCCCC[C@H](NC(=O)[C@H](CC(C)C)NC(=O)[C@H](CCCCN)NC(=O)[C@H](CO)NC(=O)[C@H](CC(C)C)NC(=O)[C@H](CC(=O)O)NC(=O)[C@H](CO)NC(=O)[C@@H](NC(=O)[C@H](Cc1ccccc1)NC(=O)[C@@H](NC(=O)CNC(=O)[C@H](CCC(N)=O)NC(=O)C(C)(C)NC(=O)[C@@H](N)Cc1c[nH]cn1)[C@@H](C)O)[C@@H](C)O)C(=O)N[C@@H](CCC(=O)O)C(=O)N[C@@H](CCC(=O)O)C(=O)N[C@@H](CCC(N)=O)C(=O)N[C@@H](CCCNC(=N)N)C(=O)N[C@@H](CCC(N)=O)C(=O)NC(C)(C)C(=O)N[C@@H](CCC(=O)O)C(=O)N[C@@H](Cc1ccccc1)C(=O)N[C@H](C(=O)N[C@@H](CCC(=O)O)C(=O)N[C@@H](Cc1c[nH]c2ccccc12)C(=O)N[C@@H](CC(C)C)C(=O)N[C@@H](CCCCN)C(=O)N[C@@H](C)C(=O)NCC(=O)NCC(=O)N[C@@H](Cc1c[nH]cn1)C(=O)N1CCC[C@H]1C(=O)N[C@@H](CO)C(=O)NC(C)(C)C(=O)N[C@@H](CCCCN)C(=O)N1CCC[C@H]1C(=O)N1CCC[C@H]1C(=O)N1CCC[C@H]1C(=O)N[C@@H](CCCCN)C(N)=O)[C@@H](C)CC)C(=O)O)C(=O)O
B3: SEQ ID NO: 6 (peptide)
peptide: H[Aib]QGTFTSDLSKLK([γGlu-γGlu-Palmitoyl])EKQRQ[Aib]EFIEWLKAGGPPS[Aib]KPPPK-NH2
modifications: N-terminus assumed
SMILES: CCCCCCCCCCCCCCCC(=O)N[C@@H](CCC(=O)N[C@@H](CCC(=O)NCCCC[C@H](NC(=O)[C@H](CC(C)C)NC(=O)[C@H](CCCCN)NC(=O)[C@H](CO)NC(=O)[C@H](CC(C)C)NC(=O)[C@H](CC(=O)O)NC(=O)[C@H](CO)NC(=O)[C@@H](NC(=O)[C@H](Cc1ccccc1)NC(=O)[C@@H](NC(=O)CNC(=O)[C@H](CCC(N)=O)NC(=O)C(C)(C)NC(=O)[C@@H](N)Cc1c[nH]cn1)[C@@H](C)O)[C@@H](C)O)C(=O)N[C@@H](CCC(=O)O)C(=O)N[C@@H](CCCCN)C(=O)N[C@@H](CCC(N)=O)C(=O)N[C@@H](CCCNC(=N)N)C(=O)N[C@@H](CCC(N)=O)C(=O)NC(C)(C)C(=O)N[C@@H](CCC(=O)O)C(=O)N[C@@H](Cc1ccccc1)C(=O)N[C@H](C(=O)N[C@@H](CCC(=O)O)C(=O)N[C@@H](Cc1c[nH]c2ccccc12)C(=O)N[C@@H](CC(C)C)C(=O)N[C@@H](CCCCN)C(=O)N[C@@H](C)C(=O)NCC(=O)NCC(=O)N1CCC[C@H]1C(=O)N1CCC[C@H]1C(=O)N[C@@H](CO)C(=O)NC(C)(C)C(=O)N[C@@H](CCCCN)C(=O)N1CCC[C@H]1C(=O)N1CCC[C@H]1C(=O)N1CCC[C@H]1C(=O)N[C@@H](CCCCN)C(N)=O)[C@@H](C)CC)C(=O)O)C(=O)O
B4: SEQ ID NO: 14 (peptide)
peptide: H[Aib]QGTFTSDLSKLK([γGlu-Palmitoyl])EKQRQ[Aib]EFIEWLKAGGPPS[Aib]KPPPK-NH2
modifications: N-terminus assumed
SMILES: CCCCCCCCCCCCCCCC(=O)N[C@@H](CCC(=O)NCCCC[C@H](NC(=O)[C@H](CC(C)C)NC(=O)[C@H](CCCCN)NC(=O)[C@H](CO)NC(=O)[C@H](CC(C)C)NC(=O)[C@H](CC(=O)O)NC(=O)[C@H](CO)NC(=O)[C@@H](NC(=O)[C@H](Cc1ccccc1)NC(=O)[C@@H](NC(=O)CNC(=O)[C@H](CCC(N)=O)NC(=O)C(C)(C)NC(=O)[C@@H](N)Cc1c[nH]cn1)[C@@H](C)O)[C@@H](C)O)C(=O)N[C@@H](CCC(=O)O)C(=O)N[C@@H](CCCCN)C(=O)N[C@@H](CCC(N)=O)C(=O)N[C@@H](CCCNC(=N)N)C(=O)N[C@@H](CCC(N)=O)C(=O)NC(C)(C)C(=O)N[C@@H](CCC(=O)O)C(=O)N[C@@H](Cc1ccccc1)C(=O)N[C@H](C(=O)N[C@@H](CCC(=O)O)C(=O)N[C@@H](Cc1c[nH]c2ccccc12)C(=O)N[C@@H](CC(C)C)C(=O)N[C@@H](CCCCN)C(=O)N[C@@H](C)C(=O)NCC(=O)NCC(=O)N1CCC[C@H]1C(=O)N1CCC[C@H]1C(=O)N[C@@H](CO)C(=O)NC(C)(C)C(=O)N[C@@H](CCCCN)C(=O)N1CCC[C@H]1C(=O)N1CCC[C@H]1C(=O)N1CCC[C@H]1C(=O)N[C@@H](CCCCN)C(N)=O)[C@@H](C)CC)C(=O)O
B5: SEQ ID NO: 17 (peptide)
peptide: H[Aib]QGTFTSDLSKLK([γGlu-γGlu-AEEA-Palmitoyl])EKQRQ[Aib]EFIEWLKA[dA]GHPS[Aib]KPPPK-NH2
modifications: N-terminus assumed
SMILES: CCCCCCCCCCCCCCCC(=O)NCCOCCOCC(=O)N[C@@H](CCC(=O)N[C@@H](CCC(=O)NCCCC[C@H](NC(=O)[C@H](CC(C)C)NC(=O)[C@H](CCCCN)NC(=O)[C@H](CO)NC(=O)[C@H](CC(C)C)NC(=O)[C@H](CC(=O)O)NC(=O)[C@H](CO)NC(=O)[C@@H](NC(=O)[C@H](Cc1ccccc1)NC(=O)[C@@H](NC(=O)CNC(=O)[C@H](CCC(N)=O)NC(=O)C(C)(C)NC(=O)[C@@H](N)Cc1c[nH]cn1)[C@@H](C)O)[C@@H](C)O)C(=O)N[C@@H](CCC(=O)O)C(=O)N[C@@H](CCCCN)C(=O)N[C@@H](CCC(N)=O)C(=O)N[C@@H](CCCNC(=N)N)C(=O)N[C@@H](CCC(N)=O)C(=O)NC(C)(C)C(=O)N[C@@H](CCC(=O)O)C(=O)N[C@@H](Cc1ccccc1)C(=O)N[C@H](C(=O)N[C@@H](CCC(=O)O)C(=O)N[C@@H](Cc1c[nH]c2ccccc12)C(=O)N[C@@H](CC(C)C)C(=O)N[C@@H](CCCCN)C(=O)N[C@@H](C)C(=O)N[C@H](C)C(=O)NCC(=O)N[C@@H](Cc1c[nH]cn1)C(=O)N1CCC[C@H]1C(=O)N[C@@H](CO)C(=O)NC(C)(C)C(=O)N[C@@H](CCCCN)C(=O)N1CCC[C@H]1C(=O)N1CCC[C@H]1C(=O)N1CCC[C@H]1C(=O)N[C@@H](CCCCN)C(N)=O)[C@@H](C)CC)C(=O)O)C(=O)O
B6: SEQ ID NO: 15 (peptide)
peptide: H[Aib]QGTFTSDLSKLK([γGlu-Stearoyl])EKQRQ[Aib]EFIEWLKAGGPPS[Aib]KPPPK-NH2
modifications: N-terminus assumed
SMILES: CCCCCCCCCCCCCCCCCC(=O)N[C@@H](CCC(=O)NCCCC[C@H](NC(=O)[C@H](CC(C)C)NC(=O)[C@H](CCCCN)NC(=O)[C@H](CO)NC(=O)[C@H](CC(C)C)NC(=O)[C@H](CC(=O)O)NC(=O)[C@H](CO)NC(=O)[C@@H](NC(=O)[C@H](Cc1ccccc1)NC(=O)[C@@H](NC(=O)CNC(=O)[C@H](CCC(N)=O)NC(=O)C(C)(C)NC(=O)[C@@H](N)Cc1c[nH]cn1)[C@@H](C)O)[C@@H](C)O)C(=O)N[C@@H](CCC(=O)O)C(=O)N[C@@H](CCCCN)C(=O)N[C@@H](CCC(N)=O)C(=O)N[C@@H](CCCNC(=N)N)C(=O)N[C@@H](CCC(N)=O)C(=O)NC(C)(C)C(=O)N[C@@H](CCC(=O)O)C(=O)N[C@@H](Cc1ccccc1)C(=O)N[C@H](C(=O)N[C@@H](CCC(=O)O)C(=O)N[C@@H](Cc1c[nH]c2ccccc12)C(=O)N[C@@H](CC(C)C)C(=O)N[C@@H](CCCCN)C(=O)N[C@@H](C)C(=O)NCC(=O)NCC(=O)N1CCC[C@H]1C(=O)N1CCC[C@H]1C(=O)N[C@@H](CO)C(=O)NC(C)(C)C(=O)N[C@@H](CCCCN)C(=O)N1CCC[C@H]1C(=O)N1CCC[C@H]1C(=O)N1CCC[C@H]1C(=O)N[C@@H](CCCCN)C(N)=O)[C@@H](C)CC)C(=O)O

Assays:
Test in all cases: cell-based or functional assay
human GLP-1 receptor = human GLP-1 receptor (human, UniProt P43220 24-463)
human glucagon receptor = human glucagon receptor (human, UniProt P47871 26-477)
Sequence of human glucagon receptor (P47871 26-477): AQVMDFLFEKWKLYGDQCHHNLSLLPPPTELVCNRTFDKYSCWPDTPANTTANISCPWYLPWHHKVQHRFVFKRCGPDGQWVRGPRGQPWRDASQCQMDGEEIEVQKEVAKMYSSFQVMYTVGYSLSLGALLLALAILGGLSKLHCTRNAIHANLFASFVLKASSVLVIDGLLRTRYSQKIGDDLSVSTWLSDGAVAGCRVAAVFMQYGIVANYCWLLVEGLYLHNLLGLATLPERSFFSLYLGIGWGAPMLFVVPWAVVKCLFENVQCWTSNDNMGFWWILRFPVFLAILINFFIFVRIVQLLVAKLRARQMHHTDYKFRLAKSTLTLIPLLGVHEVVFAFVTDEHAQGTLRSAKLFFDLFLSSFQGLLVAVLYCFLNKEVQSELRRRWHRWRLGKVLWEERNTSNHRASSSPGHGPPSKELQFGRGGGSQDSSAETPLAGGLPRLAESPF

human GIP receptor = molecular target: T1, human GIP receptor (human, UniProt P48546 22-466)
T1 sequence (looked up): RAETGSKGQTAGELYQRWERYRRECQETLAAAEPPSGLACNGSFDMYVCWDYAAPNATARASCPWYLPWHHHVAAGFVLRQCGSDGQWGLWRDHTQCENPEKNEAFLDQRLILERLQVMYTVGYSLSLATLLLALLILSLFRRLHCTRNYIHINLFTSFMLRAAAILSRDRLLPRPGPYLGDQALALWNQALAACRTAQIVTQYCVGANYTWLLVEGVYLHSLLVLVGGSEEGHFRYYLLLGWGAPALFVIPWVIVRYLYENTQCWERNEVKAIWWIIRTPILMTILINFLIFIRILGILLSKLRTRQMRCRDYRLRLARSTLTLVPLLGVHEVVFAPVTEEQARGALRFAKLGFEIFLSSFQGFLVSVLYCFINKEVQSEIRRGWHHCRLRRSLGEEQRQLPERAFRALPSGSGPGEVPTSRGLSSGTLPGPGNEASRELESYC

Row | Binder | EC50 hGLP-1R (cAMP formation) (human GLP-1 receptor) [pM] | EC50 hGlucagon R (cAMP formation) (human glucagon receptor) [pM] | EC50 hGIP R (cAMP formation) (human GIP receptor) [pM]
1 | B1 | 1.3 | 18.6 | 7.5
2 | B2 | 1.7 | 46.6 | 5.6
3 | B3 | 2.8 | 16.4 | 7.9
4 | B4 | 5.7 | 31.6 | 18.2
5 | B5 | 1.8 | 22 | 11.4
6 | B6 | 5.7 | 15.6 | 26.1
